# Assay results from patent publication US20080138280A1, “Composition and Methods For Inhibiting Cell Survival” (The Cleveland Clinic Foundation, priority 2003, published 2008).
# Experiments:
# [1] = system: NF-κB DNA binding activity; assay: Electrophoretic mobility shift assay (EMSA) of NF-κB DNA binding activity, A375 cells; format: cell-based, human; settings: NO donor 100 μM pre-treatment 16 h, Apo2L/TRAIL 100 ng/ml 1 h
# Protocol: Electrophoretic mobility shift assay (EMSA). These methods apply generally to FIGS. 5, 9-10 which employ EMSA analysis. In FIG. 5, A375 cells were treated with NO donors (NO-Cbl, NOC-18, SNAP, 100 μM, 16 h), or with Apo2L/TRAIL (100 ng/ml) or TNF-α (20 ng/ml) for 1 h, or with the combination of NO donors (16 h) followed by Apo2L/TRAIL or TNF-α (1 h). Plates were washed twice with ice-cold PBS. Cells were resuspended in cold 1× lysis buffer (20 mM HEPES, 20 mM NaF, 1 mM Na3VO4, 1 mM EDTA, 1 mM DTT, 100 mM NaCl, 10% glycerol and protease inhibitors) and incubated on ice for 30 min followed by centrifugation at 4° C. at 10,000 rpm for 10 min. Supernatants were transferred to fresh tubes and protein concentrations were assessed using the Bradford method (Bio-RAD protein assay, BioRad, Hercules, Calif.). The NF-κB consensus binding sequence (5′[…] 3′) from the IFN-β gene promoter was end-labeled with γ^32P dATP ([…]) using T4 polynucleotide kinase. DNA binding reactions were performed in 20 μl volume containing 10 μg protein, 20 mM HEPES, 10 mM KCl, 0.1% NP-40, 0.5 mM DIT and 10% glycerol. The binding reaction was performed for 20 min at 25° C. Complexes were separated from the free probe on 6% non-denaturing polyacrylamide gels in 0.5×TBE buffer at 200 V for 2 h. Gels were dried and exposed to film.
# Inhibition of NF-κB survival signaling by NO-Cbl. Because NF-κB is an important cell survival regulator, we examined the effects of NO-Cbl on NF-κB DNA binding activity. The NF-κB binding sequence from the IFN-β gene promoter was used as a probe to assess DNA binding activity. A375 cells were treated with TNF-α (20 ng/ml), Apo2L/TRAIL (100 ng/ml) or NO-Cbl (100 μM). FIG. 5, illustrates an Electrophoretic Mobility Shift Assay (EMSA) of NF-κB DNA binding activity. Pre-treatment of A375 cells with NO-Cbl inhibited the NF-κB DNA binding activity induced by Apo2L/TRAIL and TNF-α. […] NF-κB-luc transfected A375 cells were pre-treated with NO-Cbl followed by Apo2L/TRAIL or TNF-α. […] Cell lysates were analyzed for NF-κB-luc reporter activity. […]
# [2] = system: phospho-IκBα in A375 cells; assay: Western blot analysis of IκBα phosphorylation; format: cell-based, human; settings: pre-treatment 100 μM, Apo2L/TRAIL 100 ng/ml
# Protocol: Gel Electrophoresis and Immunoblot analyses. Please see FIG. 4. Whole cell lysates were prepared in 1× lysis buffer (50 mM Tris-Cl, pH 8.0, 1% Triton×100, 10% glycerol, 1 mM EDTA, 250 mM NaCl, 1 mM DTT, 1 mM PMSF, 10 μg/ml aprotinin, 10 μg/ml leupeptin, and 10 μg/ml pepstatin) for subsequent immunoblotting studies. The SDS-PAGE was conducted by using the Laemmli buffer system and 12% polyacrylamide gels. Proteins were transferred onto PVDF membranes by the semidry method (Trans Blot SD, BioRad, Hercules, Calif.). Binding of the primary and secondary antibodies was performed according to standard protocols. Membranes were immunoblotted with pAb to caspase-3, caspase-8, XIAP (BD-Pharmingen, San Diego, Calif.), PARP (BioMOL, Plymouth Meeting, Pa.), cIAP-1, FLIP, pIκBα and IκBα (Cell Signaling, Beverly, Mass.) followed by incubation with HRP conjugated secondary antibodies (Pierce, Rockford, Ill.). Immunoreactive bands were visualized by using enhanced chemiluminescence (Perkin Elmer, Boston, Mass.). Equal protein loading was confirmed by reprobing with monoclonal anti-actin antibody (Sigma Chemicals Co, St. Louis, Mo.). All immunoblots in this study were repeated 3 times with reproducible results.
# NO-Cbl treatment affected the phosphorylation state of IκBα, the prototypic inhibitor of NF-κB. Western blot analysis was performed to assess levels of phospho-IκBα and IκBα. FIG. 6 is a Western blot analysis of IκB levels and IκBα phosphorylation. IκBα and phospho-IκBα protein levels were determined in A375 whole cell lysates. […] NO-Cbl, NOC-18, and SNAP pre-treatment all inhibited Apo2L/TRAIL-induced IκBα phosphorylation.
# NF-κB signaling = assay: Inhibition of NF-κB signaling by NO donors; format: cell-based; settings: summary statement
# From the text: SNAP, SNP (nitroprusside) and NOC-18 inhibit NF-κB signaling.
# [3] = system: CMN1 (normal melanocytes); assay: Sulforhodamine B cell growth assay, normal cells; format: cell-based, human
# Protocol: (§1) Cell Culture treatments. Cells were maintained in RPMI or DMEM (Mediatech, Herndon, Va.) containing 5% fetal bovine serum (Hyclone, Logan, Utah) and 1% Antibiotic-Antimycotic (GEBCO, Invitrogen Carlsbad, Calif.) as recommended per the American Type Culture Collection media protocol for each cell line. Cells were maintained in 5% CO2 at 37° C. in a humidified tissue culture incubator. Primary non-tumorigenic […] cell lines (DMN-1 and CMN-1), and human foreskin fibroblasts (HFF; CCF, Cleveland, Ohio) were cultured in DMEM-F12 medium supplemented with 10% FBS. Cells were confirmed as mycoplasma free.
# (§2) Sulforhodamine B Cell Growth Assay. Cells were harvested with 0.5% trypsin/0.53 mM EDTA, washed with PBS and resuspended in media containing 10% FBS. Cells were plated in 96-well plates in 0.2-ml aliquots. Cells were allowed to adhere to the plate for 4 h and then NO-Cbl was added in different concentrations to the assay plate. A minimum of four were performed for each treatment. After 16 h, various chemotherapeutic agents including cytokines were added at different concentrations. Growth was monitored by the sulforhodamine B (SRB; Sigma Chemical, St. Louis, Mo.) colorimetric assay. After 36 h, the medium was removed, and the cells were fixed with 10% trichloroacetic acid and stained with SRB. Bound dye was eluted from the cells with 10 mM Tris-HCl (pH 10.5) and absorbance was measured at 570 nm using a Lab systems Multiskan RC 96-well plate reader (Lab Systems Multiscan RC, Thermo Lab Systems, Franklin, Mass.). To quantify the growth of the cells, the experimental absorbance values (Aexp) were compared with initial absorbance readings representing the starting cell numbers (Aini). To determine the starting cell number, an additional 96-well plate was seeded with cells and fixed at the beginning of the experiment. After 5 days growth, the untreated control cells and drug treated cells were fixed and stained with SRB. The absorbances derived from the initial plate and from the untreated cells at the end of the growth period (Afin) were defined as 0% and 100% growth, respectively. The percentage control growth (100%×[Aexp−Aini]/[Afin−Aini]) is expressed as a percentage of untreated controls.
# (§3) Anti-tumor effects of NO-Cbl, Apo2L/TRAIL, and the combination iii vitro. NO-Cbl enhances the anti-cellular effects of Apo2L/TRAIL against malignant Apo2L/TRAIL-resistant cell lines. First the antiproliferative effects of three melanoma lines A375, WM9, and WM3211 (previously reported to be resistant to Apo2L/TRAIL) were measured. Although Apo2L/TRAIL was used as the chemotherapeutic agents, a wide range of anti-cancer drugs and techniques would be enhanced by the NO based cobalamin compounds due to their effective inhibition of the cell survival mechanism. Such other chemotherapeutic agents are tested in the following examples. […] The SRB antiproliferative assay, used by the National Cancer Institute (NCI) to evaluate new chemotherapeutic agents was used herein. Median effect analysis was used to analyze drug interactions between NO-Cbl and Apo2L/TRAIL. Cells were pre-treated with NO-Cbl for 16 h followed by Apo2L/TRAIL for 24 h.
# (§4) The effects of nitrosylcobalamin (NO-Cbl), Apo2L/TRAIL, and the combination on the proliferation of melanoma cell lines A375, WM9, and WM3211 and normal cell lines CMN1, DMN1, and fibroblasts were observed. Cells were treated with NO-Cbl, Apo2L/TRAIL, or pre-treated with NO-Cbl followed by Apo2L/TRAIL for three days, and growth was measured by the colorimetric sulforhodamine B assay. Data points were generated to represent the mean of four replicates±standard error of the mean (SEM). Synergy between NO-Cbl and Apo2L/TRAIL was determined by median effect analysis, (combination index >1 indicates antagonism, =1 indicates additivity, and <1 indicates synergy). The combination index is represented in FIG. 1 and as the combination index observed at the specified concentrations. […]
# [4] = system: DMN1 (normal melanocytes); assay: Sulforhodamine B cell growth assay, normal cells; format: cell-based, human
# Protocol: as §1, §2, §3, §4
# normal fibroblasts = assay: Sulforhodamine B cell growth assay, normal cells; format: cell-based, human
# Protocol: as §1, §2, §3, §4
# A375 melanoma xenografts = assay: Growth of subcutaneous A375 xenografts in nude mice; format: in vivo
# From the text: In vivo experiments. Please see FIG. 2. The Institutional Animal Care and Use Committee at the Cleveland Clinic Foundation approved all procedures for animal experimentation. Five week-old NCR male athymic nude homozygous (nu/nu) mice (Taconic, Germantown, N.Y.) were inoculated with A375 tumors. Each experimental group contained 4 mice, each mouse bearing two tumors, on opposite flanks. There were four experimental groups (untreated, single agents, and the combination). Cultured tumor cells (4×10^6) were inoculated into flanks in the mid-axillary line. NO-Cbl was given twice daily (50 mg/kg s.c.) and recombinant trimeric Apo2L/TRAIL (50 mg/kg s.c.) was administered every other day, starting on day 2. Tumor volume was measured three times a week using the formula for a prolate spheroid: (4/3) πab^2 where 2a=major axis, 2b=minor axis. Formalin-fixed sections were processed by the Cleveland Clinic Histology Core. Sections were stained with hematoxylin and eosin and evaluated for pathologic changes in a blinded fashion.
# Anti-tumor effects of NO-Cbl, Apo2L/TRAIL, and the combination in vivo. To test drug activity in vivo, subcutaneous A375 xenografts were inoculated in nude mice. FIG. 2. illustrates the effect of NO-Cbl, Apo2L/TRAIL and the combination on the growth of A375 melanoma xenografts. NCR male athymic nude (nulnu) mice (n=4 per group) were injected subcutaneously with 4×10^6 A375 cells. Drug treatments began on day two (2) after injection of tumor cells. NO-Cbl was administered twice daily for the duration of the study. Apo2L/TRAIL was administered every other day. The control mice received phosphate buffered saline. The tumor volume was measured three times per week. Data points represent the mean tumor volume (in cubic mm)±SEM. Daily drug treatments began on day 2 following implantation, at which time tumors were both visible and palpable. Untreated control tumors grew unimpeded. After 25 days, the tumors from mice treated with NO-Cbl were 67.4% smaller than the control tumors (p≦0.0002) and tumors from mice treated with Apo2L/TRAIL were 89.4% smaller than the control tumors (p≦0.00001). The tumors from mice treated with the combination of NO-Cbl and Apo2L/TRAIL were 95.7% smaller than the control tumors (p≦0.000005).
# A375 cells = assay: TUNEL apoptosis assay; format: cell-based, human; settings: single agent, 36 h; NO-Cbl 100 μM or Apo2L/TRAIL 100 ng/ml
# Protocol: TUNEL assay. Please see FIG. 3. A375 cells were cultured for 36 h and exposed to various treatments (control, NO-Cbl, Apo2L/TRAIL and NO-Cbl+Apo2L/TRAIL. Apoptotic cells were detected by TUNEL (terminal deoxynucleotidyltransferase-mediated dUTP-biotin nick end-labeling) staining using a commercially available kit (APO-BRDU kit, BD-Pharmingen, San Diego, Calif.). Cells were processed according to the manufacturer's recommended protocol. The percentage of FITC-positive cells was analyzed by fluorescent activated cell scanning (FACS, Becton Dickinson, Facsvantage, San Diego, Calif.).
# Cell line A375 has a defect in endogenous TRAIL gene induction therefore, additive cellular responses from exogenous TRAIL/Apo2L were avoided. TUNEL assays of A375 cells treated in vitro with NO-Cbl, Apo2L/TRAIL, or the combination were performed. FIG. 3 illustrates a TUNEL apoptosis assay in accordance with the present invention. A375 cells were treated with NO-Cbl, Apo-2L/TRAIL, and the combination. […] The highest levels of apoptosis were observed when cells were pre-treated with NO-Cbl followed by Apo2L/TRAIL treatment. Treatment for 36 h with NO-Cbl (100 μM) or Apo2L/TRAIL (100 ng/ml) induced 6.2% and 5.4% TUNEL-positive cells, respectively.
Molecule,NF-κB DNA binding activity induced by Apo2L/TRAIL [1],IκBα phosphorylation induced by Apo2L/TRAIL [2],NF-κB signaling (NF-κB signaling),antiproliferative effect on normal cells [3],antiproliferative effect on normal cells [4],antiproliferative effect on normal cells (normal fibroblasts),"tumor regression (A375 melanoma xenografts; A375 xenografts, nude mice)","tumors smaller than the control tumors (A375 melanoma xenografts; after 25 days, NO-Cbl 50 mg/kg s.c. twice daily, Apo2L/TRAIL 50 mg/kg s.c. every other day, from day 2) [%]",TUNEL-positive cells (A375 cells) [%]
"CC(=O)NC(C(=O)O)C(C)(C)SN=O (racemic) [SNAP, S-nitroso-N-acetyl-D,L-penicillamine, reference compound]",inhibited,inhibited,inhibit,–,–,–,–,–,–
"Apo2L/TRAIL: tumor necrosis factor-related apoptosis-inducing ligand; trimeric recombinant human Apo2L/TRAIL (Genentech) (protein, UniProt P50591 1-281, looked up) Tumor necrosis factor ligand …: MAMMEVQGGPSLGQTCVLIVIFTVLLQSLCVAVTYVYFTNELKQMQDKYSKSGIACFLKEDDSYWDPNDEESMNSPCWQVKWQLRQLVRKMILRTSEETISTVQEKQQNISPLVRERGPQRVAAHITGTRGRSNTLSSPNSKNEKALGRKINSWESSRSGHSFLSNLHLRNGELVIHEKGFYYIYSQTYFRFQEEIKENTKNDKQMVQYIYKYTSYPDPILLMKSARNSCWSKDAEYGLYSIYQGGIFELKENDRIFVSVTNEHLIDMDHEASFFGAFLVG",–,–,–,completely resistant,completely resistant,completely resistant,Tumor regression was observed,89.4,5.4
